What all share (test): ELISA on recombinant NP
(An ELISA detects its analyte on a solid surface through an enzyme-linked reagent.)

The target in one assay is T1, NPB1 (influenza B virus B/Houston/B720/2004, UniProt O36433 1-548).
T1 chain: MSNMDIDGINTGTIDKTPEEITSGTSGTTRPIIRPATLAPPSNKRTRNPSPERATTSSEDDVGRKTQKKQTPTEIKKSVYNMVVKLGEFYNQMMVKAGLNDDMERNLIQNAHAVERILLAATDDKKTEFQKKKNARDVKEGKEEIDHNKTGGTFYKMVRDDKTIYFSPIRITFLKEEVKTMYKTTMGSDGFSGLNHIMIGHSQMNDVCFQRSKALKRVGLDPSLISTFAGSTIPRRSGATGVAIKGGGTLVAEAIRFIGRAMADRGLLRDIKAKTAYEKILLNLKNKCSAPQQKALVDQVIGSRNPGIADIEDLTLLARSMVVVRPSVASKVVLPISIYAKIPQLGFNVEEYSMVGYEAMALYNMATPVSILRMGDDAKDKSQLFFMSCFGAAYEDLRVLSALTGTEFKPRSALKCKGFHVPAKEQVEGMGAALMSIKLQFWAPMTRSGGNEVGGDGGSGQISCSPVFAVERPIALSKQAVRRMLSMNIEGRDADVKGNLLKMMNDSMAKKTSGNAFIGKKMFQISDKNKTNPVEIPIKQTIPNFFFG

The next assay has as its target NPA2 (influenza A virus A/WSN/1933(H1N1), UniProt A4U6V6 1-489).
For a further assay, the target named is NPA5 (influenza A virus A/Anhui/1/2005 …, UniProt Q6DPE5 1-489).
In the next assay the target is T2, NPA1 (influenza A virus A/Taiwan/1/72 (H3N2), UniProt P16982 1-489).
T2 chain: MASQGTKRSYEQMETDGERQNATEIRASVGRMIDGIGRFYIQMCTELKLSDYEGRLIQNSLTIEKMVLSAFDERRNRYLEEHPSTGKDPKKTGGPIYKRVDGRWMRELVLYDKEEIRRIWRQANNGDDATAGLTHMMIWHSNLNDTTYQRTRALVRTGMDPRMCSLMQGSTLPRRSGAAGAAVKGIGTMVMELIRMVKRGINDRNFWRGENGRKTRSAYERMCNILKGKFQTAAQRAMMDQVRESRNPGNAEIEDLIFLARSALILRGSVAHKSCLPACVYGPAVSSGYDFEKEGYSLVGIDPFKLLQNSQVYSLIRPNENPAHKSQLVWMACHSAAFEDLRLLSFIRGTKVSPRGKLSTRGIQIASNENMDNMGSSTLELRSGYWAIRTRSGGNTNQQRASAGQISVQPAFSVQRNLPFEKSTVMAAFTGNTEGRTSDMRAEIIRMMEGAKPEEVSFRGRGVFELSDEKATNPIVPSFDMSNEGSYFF

Experimental findings from patent publication US20230212554A1 (published 2023) are described below.

B1: NP2 (antibody, V domains shown)
VH: EVQLVESGGGLVQPGGSLRLSCAASGFTIGGGGIHWVRQAPGKGLEWVAGIWPYWGYTFYADSVKGRFTISADTSKNTAYLQMNSLRAEDTAVYYCARFWHGNLDVMDYWGQGTLVTVSS
VL: DIQMTQSPSSLSASVGDRVTITCRASQDVYGYVAWYQQKPGKAPKLLIYGAAGLYSGVPSRFSGSGSGTDFTLTISSLQPEDFATYYCQQYSNFPLTFGQGTKVEIKR
For B1, the EC50 with NPB1 was 1.37 nM.

B2: NP7 (antibody, V domains shown)
VH: EVQLVESGGGLVQPGGSLRLSCAASGFTISNGGIHWVRQAPGKGLEWVAGIGPYGGFTSYADSVKGRFTISADTSKNTAYLQMNSLRAEDTAVYYCARFYSNYYGYHGVMDYWGQGTLVTVSS
VL: DIQMTQSPSSLSASVGDRVTITCRASQDVFGWVAWYQQKPGKAPKLLISYSASLYSGVPSRFSGSGSGTDFTLTISSLQPEDFATYYCQQYFNYPLTFGQGTKVEIKR
B2: in the assay with NPA2, the EC50 was 0.79 nM.

B3: NP12 (antibody, V domains shown)
VH: EVQLVESGGGLVQPGGSLRLSCAASGFTIDNGYIHWVRQAPGKGLEWVASIWPSWGSTYYADSVKGRFTISADTSKNTAYLQMNSLRAEDTAVYYCARGFYYYGDYWGQGTLVTVSS
VL: DIQMTQSPSSLSASVGDRVTITCRASQDVGGNVAWYQQKPGKAPKLLISSTAGLYSGVPSRFSGSGSGTDFTLTISSLQPEDFATYYCQQYYDFPLTFGQGTKVEIKR
With B3, the EC50 with NPA5 amounted to 9.07 nM.

B4: NP4 (antibody, V domains shown)
VH: EVQLVESGGGLVQPGGSLRLSCAASGFTISNSSIHWVRQAPGKGLEWVAGIGPSGGYTFYADSVKGRFTISADTSKNTAYLQMNSLRAEDTAVYYCARFHSHNSYYSYSHYGYMDYWGQGTLVTVSS
VL: DIQMTQSPSSLSASVGDRVTITCRASQDVGWGVAWYQQKPGKAPKLLISGPSSLYSGVPSRFSGSGSGTDFTLTISSLQPEDFATYYCQQYFNYPITFGQGTKVEIKR
Regarding B4, the concentration giving a half-maximal response (EC50) in the assay with NPA1 was determined as 0.19 nM; with NPA5 it was 0.37 nM.

B5: NP19 (antibody, V domains shown)
VH: EVQLVESGGGLVQPGGSLRLSCAASGFTISSWGIHWVRQAPGKGLEWVAGIGPFWGYTSYADSVKGRFTISADTSKNTAYLQMNSLRAEDTAVYYCARFGVDNYGYMDYWGQGTLVTVSS
VL: DIQMTQSPSSLSASVGDRVTITCRASQDVSGWVAWYQQKPGKAPKLLISWSTGLYSGVPSRFSGSGSGTDFTLTISSLQPEDFATYYCQQYFNFPVTFGQGTKVEIKR
With B5, the EC50 in the assay with NPA1 amounted to 0.11 nM.

B6: NP9 (antibody, V domains shown)
VH: EVQLVESGGGLVQPGGSLRLSCAASGFTINNGWIHWVRQAPGKGLEWVAGIGPYWGFTSYADSVKGRFMISADTSKNTAYLQMNSLRAEDTAVYYCARFDSDHDHHYSYYYYYDNGYMDYWGQGTLVTVSS
VL: DIQMTQSPSSLSASVGDRVTITCRASQDVWFSVAWYQQKPGKAPKLLIYGTTSLYSGVPSRFSGSGSGTDFTLTISSLQPEDFATYYCQQYFNYPLTFGQGTKVEIKR
With B6, the EC50 in the assay with NPA5 is 1.12 nM.

B7: NP5 (antibody, V domains shown)
VH: EVQLVESGGGLVQPGGSLRLSCAASGFTISNGSIHWVRQAPGKGLEWVAGIWPSGGSTSYADSVKGRFTISADTINNSAYLQMNSLRAEDTAVYYCARWNYWGQGTLVTVSS
VL: DIQMTQSPSSLSASVGDRVTITCRASQDVGWSVAWYQQKPGKAPKLLIYGSRWLYSGVPSRFSGSGSGTDFTLTISSLQPEDFATYYCQQGYNGPLTFGQGTKVEIKR
For the molecule B7, the EC50 in the assay with NPA2 turned out to be 0.13 nM.

B8: NP23 (antibody, V domains shown)
VH: EVQLVESGGGLVQPGGSLRLSCAASGFTISNYFIHWVRQAPGKGLEWVASIGPFGGFTSYADSVKGRFTISADTSKNTAYLQMNSLRAEDTAVYYCAGYGFHYWGQGTLVTVSS
VL: DIQMTQSPSSLSASVGDRVTITCRASQDVDDGVAWYQQKPGKAPKLLISGARWLYSGVPSRFSGSGSGTDFTLTISSLQPEDFATYYCQQYYNFPLTFGQGTKVEIKR
B8: the half-maximal effective concentration (EC50) with NPB1 came to 0.06 nM.

B9: NP21 (antibody, V domains shown)
VH: EVQLVESGGGLVQPGGSLRLSCAASGFTINGYGIHWVRQAPGKGLEWVAGIWPYGGSTFYADSVKGRFTISADTSKNTAYLQMNSLRAEDTAVYYCARFYNNHGGIMDYWGQGTLVTVSS
VL: DIQMTQSPSSLSASVGDRVTITCRASQDVYFYVAWYQQKPGKAPKLLIYGSRWLYSGVPSRFSGSGSGTDFTLTISSLQPEDFATYYCQQYSNFPVTFGQGTKVEIKR
Consider B9, for which the EC50 in the assay with NPA1 came to 0.12 nM; in the assay with NPA2, 28.6 nM.

B10: NP14 (antibody, V domains shown)
VH: EVQLVESGGGLVQPGGSLRLSCAASGFTIDNGGIHWVRQAPGKGLEWVASIWPSWGSTSYADSVKGRFTISADTSKNTAYLQMNSLRAEDTAVYYCARFNFGVFGVMDYWGQGTLVTVSS
VL: DIQMTQSPSSLSASVGDRVTITCRASQDVDNDVAWYQQKPGKAPKLLIYGPRGLYSGVPSRFSGSGSGTDFTLTISSLQPEDFATYYCQQYSSWPLTFGQGTKVEIKR
As for B10, the EC50 with NPA1 worked out at 0.19 nM; in the assay with NPA2 it was 0.08 nM; with NPA5 it was 1.7 nM.

B11: NP8 (antibody, V domains shown)
VH: EVQLVESGGGLVQPGGSLRLSCAASGFTINSFGIHWVRQAPGKGLEWVAGIGPFGGSTFYADSVKGRFTISADTSKNTAYLQMNSLRAEDTAVYYCARGFYWFDYWGQGTLVTVSS
VL: DIQMTQSPSSLSASVGDRVTITCRASQDVDDSVAWYQQKPGKAPKLLIYWTRYLYSGVPSRFSGSGSGTDFTLTISSLQPEDFATYYCQQGYNYPLTFGQGTKVEIKR
As for B11, the EC50 in the assay with NPA2 came out at 2.14 nM.

B12: NP3 (antibody, V domains shown)
VH: EVQLVESGGGLVQPGGSLRLSCAASGFTISNYGIHWVRQAPGKGLEWVAGIWPFGGFTSYADSVKGRFTISADTSKNTAYLQMNSLRAEDTAVYYCARFHWNDHGYMDYWGQGTLVTVSS
VL: DIQMTQSPSSLSASVGDRVTITCRASQDVGWYVAWYQQKPGKAPKLLIYSTTGLYSGVPSRFSGSGSGTDFTLTISSLQPEDFATYYCQQYYNYPITFGQGTKVEIKR
As for B12, the EC50 with NPA1 amounted to 0.09 nM.

B13: NP20 (antibody, V domains shown)
VH: EVQLVESGGGLVQPGGSLRLSCAASGFTINGYSIHWVRQAPGKGLEWVASIGPYGGFTYYADSVKGRFTISADTSKNTAYLQMNSLRAEDTAVYYCAGFGFYYWGQGTLVTVSS
VL: DIQMTQSPSSLSASVGDRVTITCRASQDVGYGVAWYQQKPGKAPKLLISGASGLYSGVPSRFSGSGSGTDFTLTISSLQPEDFATYYCQQYSSFPLTFGQGTKVEIKR
For B13, in the assay with NPB1, the EC50 is 0.04 nM.

B14: NP11 (antibody, V domains shown)
VH: EVQLVESGGGLVQPGGSLRLSCAASGFTIDSYGIHWVRQAPGKGLEWVAWIGPSGGSTFYADSVKGRFTISADTSKNTAYLQMNSLRAEDTAVYYCARGYFWFFDYWGQGTLVTVSS
VL: DIQMTQSPSSLSASVGDRVTITCRASQDVSSWVAWYQQKPGKAPKLLISWSGYLYSGVPSRFSGSGSGTDFTLTISSLQPEDFATYYCQQGFNYPLTFGQGTKVEIKR
With B14, the EC50 with NPA2 was found to be 0.27 nM; in the assay with NPA5 it was 0.06 nM.

B15: NP24 (antibody, V domains shown)
VH: EVQLVESGGGLVQPGGSLRLSCAASGFTIDDWYIHWVRQAPGKGLEWVAGIGPYGGFTYYADSVKGRFTISADTSKNTAYLQMNSLRAEDTAVYYCARGYYGSFDYWGQGTLVTVSS
VL: DIQMTQSPSSLSASVGDRVTITCRASQDVGSSVAWYQQKPGKAPKLLIFYTSSLYSGVPSRFSGSGSGTDFTLTISSLQPEDFATYYCQQGWDSPVTFGQGTKVEIKR
As for B15, in the assay with NPB1, the EC50 amounted to 0.05 nM.

B16: NP22 (antibody, V domains shown)
VH: EVQLVESGGGLVQPGGSLRLSCAASGFTISDWSIHWVRQAPGKGLEWVAGIWPYWGSTSYADSVKGRFTISADTSKNTAYLQMNSLRAEDTAVYYCARGFYSWFDYWGQGTLVTVSS
VL: DIQMTQSPSSLSASVGDRVTITCRASQDVFSWVAWYQQKPGKAPKLLISSASSLYSGVPSRFSGSGSGTDFTLTISSLQPEDFATYYCQQSWDYPITFGQGTKVEIKR
With B16, the half-maximal effective concentration (EC50) with NPB1 amounted to 0.27 nM.

B17: NP25 (antibody, V domains shown)
VH: EVQLVESGGGLVQPGGSLRLSCAASGFTIGGGFIHWVRQAPGKGLEWVASIWPYWGFTYYADSVKGRFTISADTSKNTAYLQMNSLRAEDTAVYYCARGSYGYSDYWGQGTLVTVSS
VL: DIQMTQSPSSLSASVGDRVTITCRAGQDVSSGVAWYQQKPGKAPKLLISWTSFLYSGVPSRFSGSGSGTDFTLTISSLQPEDFATYYCQQYYDYPITFGQGTKVEIKR
Consider B17, for which the EC50 with NPB1 stood at 0.1 nM.

As a reminder, the EC50 is the concentration at which the effect is half-maximal.
